Consider 16 molecules from patent US8936925B2, “Reconstitution of 5-enolpyruvylshikimate-3-phosphate synthase activity by fragment complementation” (priority 2004, dated 2015).

B1: C185: E. coli EPSPS C-terminal fragment, residue 185 to C-terminus (protein, UniProt P0A6D3 185-427, looked up, fragment)
chain: EDTVIRIKGDLVSKPYIDITLNLMKTFGVEIENQHYQQFVVKGGQSYQSPGTYLVEGDASSASYFLAAAAIKGGTVKVTGIGRNSMQGDIRFADVLEKMGATICWGDDYISCTRGELNAIDMDMNHIPDAAMTIATAALFAKGTTTLRNIYNWRVKETDRLFAMATELRKVGAEVEEGHDYIRITPPEKLNFAEIATYNDHRMAMCFSLVALSDTPVTILDPKCTAKTFPDYFEQLARISQAA
B2: C228: E. coli EPSPS C-terminal fragment, residue 228 to C-terminus (protein, UniProt P0A6D3 228-427, looked up, fragment)
chain: GQSYQSPGTYLVEGDASSASYFLAAAAIKGGTVKVTGIGRNSMQGDIRFADVLEKMGATICWGDDYISCTRGELNAIDMDMNHIPDAAMTIATAALFAKGTTTLRNIYNWRVKETDRLFAMATELRKVGAEVEEGHDYIRITPPEKLNFAEIATYNDHRMAMCFSLVALSDTPVTILDPKCTAKTFPDYFEQLARISQAA
B3: C235: E. coli EPSPS C-terminal fragment, residue 235 to C-terminus (protein, UniProt P0A6D3 235-427, looked up, fragment)
chain: GTYLVEGDASSASYFLAAAAIKGGTVKVTGIGRNSMQGDIRFADVLEKMGATICWGDDYISCTRGELNAIDMDMNHIPDAAMTIATAALFAKGTTTLRNIYNWRVKETDRLFAMATELRKVGAEVEEGHDYIRITPPEKLNFAEIATYNDHRMAMCFSLVALSDTPVTILDPKCTAKTFPDYFEQLARISQAA
B4: C239: E. coli EPSPS C-terminal fragment, residue 239 to C-terminus (protein, UniProt P0A6D3 239-427, looked up, fragment)
chain: VEGDASSASYFLAAAAIKGGTVKVTGIGRNSMQGDIRFADVLEKMGATICWGDDYISCTRGELNAIDMDMNHIPDAAMTIATAALFAKGTTTLRNIYNWRVKETDRLFAMATELRKVGAEVEEGHDYIRITPPEKLNFAEIATYNDHRMAMCFSLVALSDTPVTILDPKCTAKTFPDYFEQLARISQAA
B5: C241: E. coli EPSPS C-terminal fragment, residue 241 to C-terminus (protein, UniProt P0A6D3 241-427, looked up, fragment)
chain: GDASSASYFLAAAAIKGGTVKVTGIGRNSMQGDIRFADVLEKMGATICWGDDYISCTRGELNAIDMDMNHIPDAAMTIATAALFAKGTTTLRNIYNWRVKETDRLFAMATELRKVGAEVEEGHDYIRITPPEKLNFAEIATYNDHRMAMCFSLVALSDTPVTILDPKCTAKTFPDYFEQLARISQAA
B6: C246: E. coli EPSPS C-terminal fragment, residue 246 to C-terminus (protein, UniProt P0A6D3 246-427, looked up, fragment)
chain: ASYFLAAAAIKGGTVKVTGIGRNSMQGDIRFADVLEKMGATICWGDDYISCTRGELNAIDMDMNHIPDAAMTIATAALFAKGTTTLRNIYNWRVKETDRLFAMATELRKVGAEVEEGHDYIRITPPEKLNFAEIATYNDHRMAMCFSLVALSDTPVTILDPKCTAKTFPDYFEQLARISQAA
B7: C219: E. coli EPSPS C-terminal fragment, residue 219 to C-terminus (protein, UniProt P0A6D3 219-427, looked up, fragment)
chain: HYQQFVVKGGQSYQSPGTYLVEGDASSASYFLAAAAIKGGTVKVTGIGRNSMQGDIRFADVLEKMGATICWGDDYISCTRGELNAIDMDMNHIPDAAMTIATAALFAKGTTTLRNIYNWRVKETDRLFAMATELRKVGAEVEEGHDYIRITPPEKLNFAEIATYNDHRMAMCFSLVALSDTPVTILDPKCTAKTFPDYFEQLARISQAA
B8: C225: E. coli EPSPS C-terminal fragment, residue 225 to C-terminus (protein, UniProt P0A6D3 225-427, looked up, fragment)
chain: VKGGQSYQSPGTYLVEGDASSASYFLAAAAIKGGTVKVTGIGRNSMQGDIRFADVLEKMGATICWGDDYISCTRGELNAIDMDMNHIPDAAMTIATAALFAKGTTTLRNIYNWRVKETDRLFAMATELRKVGAEVEEGHDYIRITPPEKLNFAEIATYNDHRMAMCFSLVALSDTPVTILDPKCTAKTFPDYFEQLARISQAA
B9: N227: E. coli EPSPS N-terminal fragment, N-terminus to residue 227 (protein, UniProt P0A6D3 1-227, looked up, fragment)
chain: MESLTLQPIARVDGTINLPGSKSVSNRALLLAALAHGKTVLTNLLDSDDVRHMLNALTALGVSYTLSADRTRCEIIGNGGPLHAEGALELFLGNAGTAMRPLAAALCLGSNDIVLTGEPRMKERPIGHLVDALRLGGAKITYLEQENYPPLRLQGGFTGGNVDVDGSVSSQFLTALLMTAPLAPEDTVIRIKGDLVSKPYIDITLNLMKTFGVEIENQHYQQFVVKG
B10: N224: E. coli EPSPS N-terminal fragment, N-terminus to residue 224 (protein, UniProt P0A6D3 1-224, looked up, fragment)
chain: MESLTLQPIARVDGTINLPGSKSVSNRALLLAALAHGKTVLTNLLDSDDVRHMLNALTALGVSYTLSADRTRCEIIGNGGPLHAEGALELFLGNAGTAMRPLAAALCLGSNDIVLTGEPRMKERPIGHLVDALRLGGAKITYLEQENYPPLRLQGGFTGGNVDVDGSVSSQFLTALLMTAPLAPEDTVIRIKGDLVSKPYIDITLNLMKTFGVEIENQHYQQFV
B11: N218: E. coli EPSPS N-terminal fragment, N-terminus to residue 218 (protein, UniProt P0A6D3 1-218, looked up, fragment)
chain: MESLTLQPIARVDGTINLPGSKSVSNRALLLAALAHGKTVLTNLLDSDDVRHMLNALTALGVSYTLSADRTRCEIIGNGGPLHAEGALELFLGNAGTAMRPLAAALCLGSNDIVLTGEPRMKERPIGHLVDALRLGGAKITYLEQENYPPLRLQGGFTGGNVDVDGSVSSQFLTALLMTAPLAPEDTVIRIKGDLVSKPYIDITLNLMKTFGVEIENQ
B12: N234: E. coli EPSPS N-terminal fragment, N-terminus to residue 234 (protein, UniProt P0A6D3 1-234, looked up, fragment)
chain: MESLTLQPIARVDGTINLPGSKSVSNRALLLAALAHGKTVLTNLLDSDDVRHMLNALTALGVSYTLSADRTRCEIIGNGGPLHAEGALELFLGNAGTAMRPLAAALCLGSNDIVLTGEPRMKERPIGHLVDALRLGGAKITYLEQENYPPLRLQGGFTGGNVDVDGSVSSQFLTALLMTAPLAPEDTVIRIKGDLVSKPYIDITLNLMKTFGVEIENQHYQQFVVKGGQSYQSP
B13: N245: E. coli EPSPS N-terminal fragment, N-terminus to residue 245 (protein, UniProt P0A6D3 1-245, looked up, fragment)
chain: MESLTLQPIARVDGTINLPGSKSVSNRALLLAALAHGKTVLTNLLDSDDVRHMLNALTALGVSYTLSADRTRCEIIGNGGPLHAEGALELFLGNAGTAMRPLAAALCLGSNDIVLTGEPRMKERPIGHLVDALRLGGAKITYLEQENYPPLRLQGGFTGGNVDVDGSVSSQFLTALLMTAPLAPEDTVIRIKGDLVSKPYIDITLNLMKTFGVEIENQHYQQFVVKGGQSYQSPGTYLVEGDASS
B14: N259: E. coli EPSPS N-terminal fragment, N-terminus to residue 259 (protein, UniProt P0A6D3 1-259, looked up, fragment)
chain: MESLTLQPIARVDGTINLPGSKSVSNRALLLAALAHGKTVLTNLLDSDDVRHMLNALTALGVSYTLSADRTRCEIIGNGGPLHAEGALELFLGNAGTAMRPLAAALCLGSNDIVLTGEPRMKERPIGHLVDALRLGGAKITYLEQENYPPLRLQGGFTGGNVDVDGSVSSQFLTALLMTAPLAPEDTVIRIKGDLVSKPYIDITLNLMKTFGVEIENQHYQQFVVKGGQSYQSPGTYLVEGDASSASYFLAAAAIKGGT
B15: N240: E. coli EPSPS N-terminal fragment, N-terminus to residue 240 (protein, UniProt P0A6D3 1-240, looked up, fragment)
chain: MESLTLQPIARVDGTINLPGSKSVSNRALLLAALAHGKTVLTNLLDSDDVRHMLNALTALGVSYTLSADRTRCEIIGNGGPLHAEGALELFLGNAGTAMRPLAAALCLGSNDIVLTGEPRMKERPIGHLVDALRLGGAKITYLEQENYPPLRLQGGFTGGNVDVDGSVSSQFLTALLMTAPLAPEDTVIRIKGDLVSKPYIDITLNLMKTFGVEIENQHYQQFVVKGGQSYQSPGTYLVE
B16: N238: E. coli EPSPS N-terminal fragment, N-terminus to residue 238 (protein, UniProt P0A6D3 1-238, looked up, fragment)
chain: MESLTLQPIARVDGTINLPGSKSVSNRALLLAALAHGKTVLTNLLDSDDVRHMLNALTALGVSYTLSADRTRCEIIGNGGPLHAEGALELFLGNAGTAMRPLAAALCLGSNDIVLTGEPRMKERPIGHLVDALRLGGAKITYLEQENYPPLRLQGGFTGGNVDVDGSVSSQFLTALLMTAPLAPEDTVIRIKGDLVSKPYIDITLNLMKTFGVEIENQHYQQFVVKGGQSYQSPGTYL

The test system of the first experiment is aroA gene-mutant E. coli strain AB2829. Put plainly: In vivo complementation: growth on solid M63 restrictive medium. The conditions noted are these: C-terminal fragment alone. The format is cell-based. Also on record: key: −: failed to grow; +: able to grow. The source says:
The pKU2100 plasmid constructed as described above and corresponding pACYC1184 plasmid were introduced separately or together into the strain AB2829 deficient in E. coli aroA gene. Then, the strain was streaked on solid M63 restrictive medium and cultured overnight to determine the growth.
In order to test if EPSPS achieves fragment complementation after in vivo expression, genes encoding EPSPS N-terminal peptides were constructed into pACYC184, and genes encoding EPSPS C-terminal peptides were constructed into pBR322 (see the section Materials and Methods for the detailed construction method). Afterwards, these plasmids were introduced into aroA gene-mutant E. coli strain AB2829. EPSPS activity of the protein fragments encoded by these genes was determined by the growth of the strains on M63 restrictive medium.
The pACYC184 and pBR322 plasmids are able to be expressed in the same bacterial cell since they have replicons p15A and ColE1 respectively. In this regard, a pACYC184 plasmid was co-introduced into aroA gene-mutant E. coli strain AB2829 together with a corresponding pKU2100 plasmid, wherein the N-terminal peptide encoded by the pACYC184 plasmid and C-terminal peptide encoded by the pKU2100 plasmid are the two fragments divided at the same site from EPSPS. The resulting strains are streaked on M63 restrictive medium, and cultured at 37° C.
The pBR322 plasmids constructed in section 3.5 a and their relevant pACYC1184 plasmids constructed in section 3.5 b were introduced respectively or together into E. coli strain AB2829 deficient in aroA gene. Then the strains were streaked on solid M63 restrictive medium and cultured overnight to test the growth.
Take B1: the “complementation condition, C-terminal” value was “−”.
As for B2, the “complementation condition, C-terminal” value is listed as “−”.
Consider B3, for which the “complementation condition, C-terminal” value is “−”.
As to B4, the “complementation condition, C-terminal” value was “−”.
On the same count and under the same terms, then B5, with “−”; and B6, with “−”.
On the same count and under the same terms, the result for B7 reads “−”.
The same measure, in the same setting: then B8, with “−”.

Still in this experiment, the particulars now being: N-terminal fragment alone.
Take B9: the “complementation condition, N-terminal” value is “−”.
The same measure, in the same setting: then B10, with “−”.
On to B11, for which the “complementation condition, N-terminal” value is “−”.
The same measure, in the same setting: the result for B12 reads “−”; that for B13, “−”.
The same measure, in the same setting: the result for B14 reads “−”.
B15: the “complementation condition, N-terminal” value was “−”.
Regarding B16, the “complementation condition, N-terminal” value is recorded as “−”.
